How the values were obtained:
[1] = molecular target: M2139Ig (full recombinant mouse IgG2b antibody with the M2139 sequence) (mouse); test: SPR
[2] = molecular target: DBAIg (full recombinant mouse IgG2b antibody encoding the DBA/1J Ighv1-4 germline sequence) (mouse (DBA/1J) | mouse); test: SPR

## triple-helical J1 peptide (synthetic peptide containing the J1 epitope of type II collagen)
[1]
  Kd: 38.8 nM
  koff: 0.00268 s⁻¹
  kon: 68900 M⁻¹ s⁻¹
[2]
  Kd: 274 nM
  koff: 0.00446 s⁻¹
  kon: 16300 M⁻¹ s⁻¹

— article PMC3949579
